Experimental data from patent US20140227251A1 (AbbVie / Abbott, published 2014).
Numbering of substitutions follows the chain as printed. In names and notes the source's numbering stands.

B1: D2E7 combination variant Y32K/SS-R30I (antibody, V domains shown)
VH: not shown
VL: DIQMTQSPSSLSASVGDRVTITCRASQSIINYLSWYQQKPGKAPKLLIYAASTLQSGVPSRFSGSGSGTDFTLTISSLQPEDVATYYCQRYNRAPYTFGQGTKVEIK
notes: VL-SS backbone = G28S and A34S in CDR-L1 (Kabat); Expressed and purified variant antibody; also called Y2K in CDR-H1 with G5S, R7I and A11S in CDR-L1
B2: D2E7 combination variant Y32K/SS-R30T (antibody, V domains shown)
VH: not shown
VL: B1 VL with I30T
notes: VL-SS backbone = G28S and A34S in CDR-L1 (Kabat); Expressed and purified variant antibody; also called Y2K in CDR-H1 with G5S, R7T and A11S in CDR-L1

Molecular target: T1, Human TNF-α (R&D Systems) (human, UniProt P01375 77-233, labeled with Alexa Fluor 647 in the FACS assays)
T1 construct: also called Alexa Fluor 647-labeled TNF-α; TNF-α-AF647
T1 sequence (P01375 77-233 limits assumed): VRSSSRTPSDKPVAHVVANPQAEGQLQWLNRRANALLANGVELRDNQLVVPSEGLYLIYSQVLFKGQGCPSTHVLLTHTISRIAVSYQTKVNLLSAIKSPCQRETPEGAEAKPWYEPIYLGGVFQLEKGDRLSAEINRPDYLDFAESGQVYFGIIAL
Assay: surface plasmon resonance (Biacore)

binding result | Binder
binds | B1
binds | B2
